The test concerns the target transcellular partners. Put plainly: cell-based or functional assay.

From patent US20230079439A1, “Compositions and Methods for Enhancing Beta Cell Maturation, Health and Function” (THE REGENTS OF THE UNIVERSITY OF CALIFORNIA, priority 2016, published 2023) come the findings set out here.

“Soluble neuroligin-2 extracellular domain (receptor)” returned a half-maximal inhibition of insulin secretion by rat islets (20 mM glucose) of 9 nM.
